According to US20220251215A1 (Regeneron, published 2022):

Assays:
[1] = target: T1, monomeric HLA-A2:NY-ESO-1(156-165) (V at position 165) peptide complex, 2906; test: SPR, 25 C, antibody captured, monomeric complex injected;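 also: antibody held on sensor chip via immobilized anti-human or anti-mouse Fc antibody, rate constants derived by fitting sensorgrams to a 1:1 binding model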
T1 construct: also called soluble HLA-A2:NY-ESO-1 peptide complex

[2] = target: HLA-A2 on T2 cells pulsed with ITCH (807-815) peptide (human); test: flow cytometry, 10 ug/ml, pulsed T2 cells
[3] = target: HLA-A2 on T2 cells pulsed with GRID1: 7-15 peptide (human); test: flow cytometry, 10 ug/ml, pulsed T2 cells
[4] = target: HLA-A2 on T2 cells pulsed with EARS2: 306-314 peptide (human); test: flow cytometry, 10 ug/ml, pulsed T2 cells
[5] = target: T2, HLA-A2 on T2 cells pulsed with NY-ESO-1:157-165, wt peptide (C165) (human); test: flow cytometry, 10 ug/ml, pulsed T2 cells
T2 construct: also called T2 Pulsed NY-ESO-1_157-165

[6] = target: HLA-A2 on T2 cells pulsed with BCL9L: 1351-1359 peptide (human); test: flow cytometry, 10 ug/ml, pulsed T2 cells
[7] = target: HLA-A2 on T2 cells pulsed with FBXL22: 4-12 peptide (human); test: flow cytometry, 10 ug/ml, pulsed T2 cells
[8] = target: HLA-A2 on T2 cells pulsed with MAGEH1: 90-98 peptide (human); test: flow cytometry, 10 ug/ml, pulsed T2 cells
[9] = target: HLA-A2 on T2 cells pulsed with URB1: 1853-1861 peptide (human); test: flow cytometry, 10 ug/ml, pulsed T2 cells
[10] = target: HLA-A2 on T2 cells pulsed with ZDHHC1 (376-384) peptide (human); test: flow cytometry, 10 ug/ml, pulsed T2 cells
[11] = target: T1, monomeric HLA-A2:NY-ESO-1(156-165) (V …); test: SPR, 37 C, antibody captured, monomeric complex injected
[12] = target: T2, HLA-A2 on T2 cells pulsed with …; test: flow cytometry, peptide-pulsed T2 cells

Kd [1]: 0.16 nM | koff [1]: 0.000185 s⁻¹ | kon [1]: 1.16e+06 M⁻¹ s⁻¹ | t½ [1]: 62.5 min | ratio of MFI, pulsed to unpulsed [2]: 1 ratio | ratio of MFI, pulsed to unpulsed [3]: 1.6 ratio | ratio of MFI, pulsed to unpulsed [4]: 0.6 ratio | ratio of MFI, pulsed to unpulsed [5]: 138 ratio | ratio of MFI, pulsed to unpulsed [6]: 3 ratio | ratio of MFI, pulsed to unpulsed [7]: 1.3 ratio | ratio of MFI, pulsed to unpulsed [8]: 0.5 ratio | ratio of MFI, pulsed to unpulsed [9]: 0.6 ratio | ratio of MFI, pulsed to unpulsed [10]: 1.6 ratio | Kd [11]: 0.293 nM | koff [11]: 0.000441 s⁻¹ | kon [11]: 1.5e+06 M⁻¹ s⁻¹ | t½ [11]: 26.2 min | EC50 [12]: 0.32 nM
B1: mAb28128P (antibody, human IgG4 S228P, kappa, V domains shown)
VH: EVQLVESGGGVVQPGGSLRLSCAASGFIFDDYAMHWVRQVPGKGLEWISLSSGGGGGTYYADPVKGRFTISRDNSKNSLHLQMNSLRAEDTASYYCAKDMVFGVVTPDFFFAMDVWGQGTTVTVSS
VL: DIQMTQSPSSLSASVGDRVTITCRASQSISTYLNWYQQKPGKAPKLLIYGASSLQRGVPSRFSGSGSGTDFTLTISSLQPEDFATYYCQQTYSTPPITFGQGTRLEIKR
